Source: patent publication US20200165335A1 (Seagen, published 2020)

Target: T1, human LIV-1 (human, UniProt Q13433 29-755)
T1 construct: also called hLIV-1; Q13433
T1 sequence: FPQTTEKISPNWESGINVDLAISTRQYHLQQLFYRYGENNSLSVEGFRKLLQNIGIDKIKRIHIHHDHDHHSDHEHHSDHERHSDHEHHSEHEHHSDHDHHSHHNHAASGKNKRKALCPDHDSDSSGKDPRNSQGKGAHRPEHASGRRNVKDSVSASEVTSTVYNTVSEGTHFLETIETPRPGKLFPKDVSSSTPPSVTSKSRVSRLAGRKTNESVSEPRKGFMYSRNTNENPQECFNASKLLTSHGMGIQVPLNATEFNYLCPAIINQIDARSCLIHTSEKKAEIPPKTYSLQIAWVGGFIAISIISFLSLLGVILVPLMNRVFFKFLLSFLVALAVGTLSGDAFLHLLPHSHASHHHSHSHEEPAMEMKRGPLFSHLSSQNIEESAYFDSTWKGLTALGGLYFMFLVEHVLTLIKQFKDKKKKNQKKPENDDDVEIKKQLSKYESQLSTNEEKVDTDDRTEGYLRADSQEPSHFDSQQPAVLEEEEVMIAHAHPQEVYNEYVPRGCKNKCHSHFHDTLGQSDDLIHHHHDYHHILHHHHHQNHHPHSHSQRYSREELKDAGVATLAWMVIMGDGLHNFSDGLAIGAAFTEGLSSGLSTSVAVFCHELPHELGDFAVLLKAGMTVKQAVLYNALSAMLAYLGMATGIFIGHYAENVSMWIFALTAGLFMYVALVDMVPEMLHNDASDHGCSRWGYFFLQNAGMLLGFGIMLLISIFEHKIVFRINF
Experiment: competition flow cytometry, CHO cells expressing recombinant LIV-1, vs 5 nM AF647-labelled BR2-22a
Protocol: 1×10⁵ CHO cells expressing recombinant LIV-1 in PBS were aliquoted into each well of a 96-well v-bottom plates on ice. […] Cells were pelleted and washed 3 times with PBS. The cells were then pelleted and resuspended in 125 μL of PBS/BSA. Fluorescence was analyzed by flow cytometery, using percent of saturated fluorescent signal to determine percent labeled humanized BR2-22a antibody bound and to subsequently extrapolate the EC50 by fitting the data to a sigmoidal dose-response curve with variable slope.
All permutations of these five heavy chains and six light chains were then tested in a competition assay compared with BR2-22a (see FIG. 17).

| Binder | EC50 [µg/mL] |
| --- | --- |
| humanized BR2-22a antibody HELF (antibody, V domains shown, 15 backmutations; also called hLIV-22 HE + hLIV-22 LF; HELF historic control) VH: QVQLVQSGAEVKKPGASVKVSCKASGLNIEDYYMHWVRQAPGQGLEWIGWIDPENGDTEYGPKFQGKATMTADTSINTAYMELSRLRSDDTAVYYCTVHNAHYGTWFAYWGQGTLVTVSS VL: DVVMTQSPLSLPVTLGQPASISCRSSQSLLHSSGNTYLEWYLQRPGQSPKPLIYKISTRFSGVPDRFSGSGSGTDFTLKISRVEAEDVGVYYCFQGSHVPYTFGGGTKVEIKR | 0.3 |
| humanized BR2-22a antibody HFLG (antibody, V domains shown, also called hLIV-22 HF + hLIV-22 LG) VH: QVQLVQSGAEVKKPGASVKVSCKASGLTIEDYYMHWVRQAPGQGLEWMGWIDPENGDTEYGPKFQGRVTMTRDTSISTAYMELSRLRSDDTAVYYCAVHNAHYGTWFAYWGQGTLVTVSS VL: DVVMTQSPLSLPVTLGQPASISCRSSQSLLHSSGNTYLEWYQQRPGQSPRPLIYKISTRFSGVPDRFSGSGSGTDFTLKISRVEAEDVGVYYCFQGSHVPYTFGGGTKVEIKR | 0.8 |
| humanized BR2-22a antibody HELE (antibody, V domains shown, also called hLIV-22 HE + hLIV-22 LE) VH: QVQLVQSGAEVKKPGASVKVSCKASGLNIEDYYMHWVRQAPGQGLEWIGWIDPENGDTEYGPKFQGKATMTADTSINTAYMELSRLRSDDTAVYYCTVHNAHYGTWFAYWGQGTLVTVSS VL: DVVMTQSPLSLPVTLGQPASISCRSSQSLLHSSGNTYLEWFQQRPGQSPRPLIYKISTRFSGVPDRFSGSGSGTDFTLKISRVEAEDVGVYYCFQGSHVPYTFGGGTKVEIKR | 25.1 |
| humanized BR2-22a antibody HGLF (antibody, V domains shown, also called hLIV-22 HG + hLIV-22 LF) VH: QVQLVQSGAEVKKPGASVKVSCKASGLTIEDYYMHWVRQAPGQGLEWMGWIDPENGDTEYGPKFQGRVTMTRDTSINTAYMELSRLRSDDTAVYYCAVHNAHYGTWFAYWGQGTLVTVSS VL: DVVMTQSPLSLPVTLGQPASISCRSSQSLLHSSGNTYLEWYLQRPGQSPKPLIYKISTRFSGVPDRFSGSGSGTDFTLKISRVEAEDVGVYYCFQGSHVPYTFGGGTKVEIKR | 0.4 |
| humanized BR2-22a antibody HFLF (antibody, V domains shown, also called hLIV-22 HF + hLIV-22 LF) VH: QVQLVQSGAEVKKPGASVKVSCKASGLTIEDYYMHWVRQAPGQGLEWMGWIDPENGDTEYGPKFQGRVTMTRDTSISTAYMELSRLRSDDTAVYYCAVHNAHYGTWFAYWGQGTLVTVSS VL: DVVMTQSPLSLPVTLGQPASISCRSSQSLLHSSGNTYLEWYLQRPGQSPKPLIYKISTRFSGVPDRFSGSGSGTDFTLKISRVEAEDVGVYYCFQGSHVPYTFGGGTKVEIKR | 0.8 |
